Patent US20250073350A1 (BROAD INSTITUTE, published 2025)

Target: the molecule itself
Assay: self-association; size exclusion and electron microscopy of protein produced in E. coli

Protein | binding result
MmPNMA5, bacterially produced (other, mouse, UniProt Q5DTT8 1-618, looked up, also called paraneoplastic antigen-like protein 5) MAVALLDDWCKGMDLDPKKAVLIVGIPVQYTEAAINDALKEGLPPLCAYKVIGRMFRREDEAKAVLIELPEVVDYTMMPTHIPAEGGAWEVVVKPRSPDDEFMNKLIYFLRDEGRRIVDVAKALGFSTVPTGKIELKNLDQDKPKGLKSLCNNSTCYKKLKVFSGSPFPGPGEESFETWLEEVTELMQLWQVSEREKKQCLLESLRGSALSIMQALWTSNDSLTVEQCLKALKHIFGNKEDSKVLQFRFLQSSQKPAEKVSDYLLRLEPLLQKAVQQSPLSAHSADSIRLKHVLSQVSMTTGLRGKLSLLDQQGCPPTFLELMKLTRDEEEWESTVVVEEQEQVRRDSSACEAANEVVTQAEDSREVSTQTTGEEMTSVKRRRLLWRHSAGEEGQRKESGFWAESEPDEQKPYVRAQESGNERGAWAVSHPNPKEIEAQDSQEFLPVAGNRDTLTKSWGSPDKGTGDMSVAEGQQGQGKAPNFLLARNDPNKQEQIPHSSVTTKWQDRGECQRLKWGASMITRPQGNPDRSWDTSGSQDGEDGCSELRMPTGTEAAQGVEEPATGLSWAEDTSAWEQARLGRETVPRRGGRRIQPVFRIIYTALGEPHEGSTLESFRE | binds
MmMOAP1, bacterially produced (other, mouse, UniProt Q9ERH6 1-352, looked up, also called modulator of apoptosis 1) MTLRLLEDWCRGMDMNPRKALLVAGIPPTCGVADIEEALQAGLAPLGEHRLLGRMFRRDENKNVALIGLTVETGSALVPKEIPAKGGVWRVIFKPPDTDSDFLCRLNEFLKGEGMTMGELTRVLGNRNDPLGLDPGIMIPEIRAPMLAQALNEALKPTLQYLRYKKLSVFSGRDPPGPGEEEFESWMFHTSQVMKTWQVSDVEKRRRLIESLRGPAFEIIRVLKINNPFITVAECLKTLETIFGIIDNPRALQVKYLTTYQKTDEKLSAYVLRLEPLLQKLVQKGAIEKEVVNQARLDQVIAGAVHKSVRRELGLPEGSPAPGLLQLLTLIKDKEAEEEEVLLQAELEGYCT | binds
